{"source": "patent US20160289338A1", "about": "(OXFORD BIOTHERAPEUTICS, published 2016)", "binders": {"B1": {"name": "Matriptase_A1 (antibody, V domains shown)", "VH": "EVQLLESGGGLVQPGGSLRLSCAASGFTFRNYDMSWVRQAPGKGLEWVSSISYSGGSTYYADSVKGRFTISRDNSKNTLSLQMNSLRAEDTAVYYCAKRGATPFDYWGQGSLVTVSS", "VL": "not shown", "notes": "Fully human monoclonal IgG from a hybridoma of an HCo12 HuMAb Mouse; supernatants were screened for human gamma, kappa antibodies; a human IgG1 isotype control was used in the ADCC assay"}}, "key": {"[1]": {"target": "T1, human Matriptase (cell-surface) (human, UniProt Q9Y5Y6 1-855)", "T1 sequence": "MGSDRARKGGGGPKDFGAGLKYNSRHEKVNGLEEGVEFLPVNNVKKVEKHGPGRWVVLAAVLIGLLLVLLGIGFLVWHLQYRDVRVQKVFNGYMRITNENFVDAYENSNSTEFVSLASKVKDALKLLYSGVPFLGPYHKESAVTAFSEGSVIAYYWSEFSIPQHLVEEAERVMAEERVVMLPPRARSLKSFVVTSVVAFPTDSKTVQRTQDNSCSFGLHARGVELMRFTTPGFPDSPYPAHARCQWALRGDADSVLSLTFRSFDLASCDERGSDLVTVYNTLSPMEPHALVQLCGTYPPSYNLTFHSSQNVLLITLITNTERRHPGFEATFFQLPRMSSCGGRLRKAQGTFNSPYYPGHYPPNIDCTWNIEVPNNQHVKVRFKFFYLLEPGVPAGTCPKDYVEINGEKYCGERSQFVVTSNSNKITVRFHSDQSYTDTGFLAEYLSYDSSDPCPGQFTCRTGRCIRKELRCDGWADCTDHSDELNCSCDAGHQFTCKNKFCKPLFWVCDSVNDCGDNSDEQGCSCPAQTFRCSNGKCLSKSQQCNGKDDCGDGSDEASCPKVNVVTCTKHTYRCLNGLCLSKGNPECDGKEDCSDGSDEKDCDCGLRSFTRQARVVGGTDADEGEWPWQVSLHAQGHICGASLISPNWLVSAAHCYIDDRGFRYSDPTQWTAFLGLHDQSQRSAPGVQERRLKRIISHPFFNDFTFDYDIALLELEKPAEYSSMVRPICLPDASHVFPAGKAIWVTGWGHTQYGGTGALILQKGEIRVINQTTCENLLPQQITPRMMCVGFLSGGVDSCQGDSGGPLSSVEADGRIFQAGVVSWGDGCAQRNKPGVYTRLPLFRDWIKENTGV", "experiment": "cell-based or functional assay"}, "[2]": {"target": "T1, human Matriptase (cell-surface)", "experiment": "flow cytometry on SNU-1 cells, PE GMFI", "method": "The specificity of antibodies against the Matriptase selected in Example 1 was tested by flow cytometry. To test the ability of the antibodies to bind to the cell surface Matriptase protein, the antibodies were incubated with the Matriptase-expressing cells. Cells were washed in FACS buffer (DPBS, 2% FBS), centrifuged and resuspended in 100 μl of the diluted primary Matriptase antibody (also diluted in FACS buffer). The antibody-cell line complex was incubated on ice for 60 min and then washed twice with FACS buffer as described above. The cell-antibody pellet was resuspended in 100 μl of the diluted secondary antibody (also diluted in FACS buffer) and incubated on ice for 60 min on ice. The pellet was washed as before and resuspended in 200 μl FACS buffer. The samples were loaded onto the BD FACScanto II flow sytometer and the data analyzed using the BD FACSdiva software."}, "[3]": {"target": "T1, human Matriptase (cell-surface)", "experiment": "flow cytometry on H69 cells, GMFI Facsarray; the legend box prints no unit, nmol/L is the unit of the concentration axis"}, "[4]": {"target": "T1, human Matriptase (cell-surface)", "experiment": "flow cytometry on HT-29 cells, GMFI Facsarray; the legend box prints no unit, nmol/L is the unit of the concentration axis"}}}
{"binder": "B1", "values": [{"measurement": "EC50, MabZAP internalization assay, H69 cells", "setting": "[1]", "result": 0.074, "unit": "nM"}, {"measurement": "EC50, MabZAP internalization assay, HT-29 cells", "setting": "[1]", "result": 0.183, "unit": "nM"}, {"measurement": "EC50 (read off the curve)", "setting": "[2]", "result": "~0.5", "unit": "nmol/L"}, {"measurement": "EC50", "setting": "[3]", "result": 3.45, "unit": "nM"}, {"measurement": "EC50", "setting": "[4]", "result": 0.222, "unit": "nM"}]}
